Consider two molecules from patent publication US20130324474A1 (Eli Lilly, published 2013).

Test [1] has as its target T1, Recombinant Rat GFRα-1/GDNF Rα-1 Fc Chimera (rat, UniProt Q62997 25-445).
T1 construct: Purchased Fc chimera; not shown: Fc part of a purchased Fc chimera
T1 sequence (looked up): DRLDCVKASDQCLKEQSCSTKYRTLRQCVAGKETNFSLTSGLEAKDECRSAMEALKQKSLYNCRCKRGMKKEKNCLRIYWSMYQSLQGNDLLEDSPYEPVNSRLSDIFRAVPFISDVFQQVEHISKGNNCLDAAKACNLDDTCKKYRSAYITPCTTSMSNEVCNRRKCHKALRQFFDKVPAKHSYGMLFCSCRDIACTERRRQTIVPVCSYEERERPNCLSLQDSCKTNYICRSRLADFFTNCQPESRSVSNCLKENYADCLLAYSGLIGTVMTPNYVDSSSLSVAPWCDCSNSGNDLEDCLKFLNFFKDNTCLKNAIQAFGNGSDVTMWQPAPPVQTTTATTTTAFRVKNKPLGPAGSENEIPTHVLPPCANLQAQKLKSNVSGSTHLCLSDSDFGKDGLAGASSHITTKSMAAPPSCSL
The test can be described thus: SPR (Biacore 2000), rat GFRα1-Fc captured on protein A, GDNFv as analyte, 1:1 Langmuir, 25 C. The method, then: A Biacore® 2000 instrument is used to measure the binding kinetics of GDNFv to human and rat GDNF family receptors (GFRα1 and GFRα2). Measurements are performed at 25° C. Samples are dissolved in HBS-EP buffer (150 mM sodium chloride, 3 mM EDTA, 0.005% (w/v) surfactant P-20, pH 7.4). Protein A, Staphylococcus aureus is immobilized on flow cells 1 to 4 of a CM4 sensor chip (GE Healthcare #BR-1005-39) at a level of ˜200 response units (RUs) using amine coupling chemistry to capture GFR Fc chimera (Recombinant Human GFRα-1/GDNF Rα-1 Fc Chimera; Recombinant Human GFRα-2/GDNF Rα-2 Fc Chimera; Recombinant Rat GFRα-1/GDNF Rα-1 Fc Chimera; Recombinant Mouse GFRα-2/GDNF Rα-2 Fc Chimera).
Binding is evaluated using multiple cycles. Each cycle consists of the following steps: 1) injection of about 10 μL of GFR at a concentration of ˜1.0 μg/mL and a flow rate of 10 μL/min., aiming at a capture of 120-150 RUs; 2) injection of 250 μL of GDNFv at a flow rate of 50 μL/min., in a final concentration rage between 10 nM and 0.04 nM followed by […]. for dissociation; and 3) regeneration using about 30 μL of 10 mM glycine hydrochloride, pH 1.5. Association and dissociation rates for each cycle are evaluated using a “1:1 (Langmuir) binding” model in the BIAevaluation software, version 4.1.
A general note: In SPR one partner is held on a chip, and binding of the other changes the refractive index at the surface.

In test [2] the target is T2, Recombinant Human GFRα-1/GDNF Rα-1 Fc Chimera (human, UniProt P56159 25-429).
T2 construct: Purchased Fc chimera; It was captured on protein A in Biacore and coated on the plate in ELISA; also called GFRα1-Fc; recombinant human GFRα1-Fc chimera, carrier-free; not shown: Fc part of a purchased Fc chimera
T2 sequence (looked up): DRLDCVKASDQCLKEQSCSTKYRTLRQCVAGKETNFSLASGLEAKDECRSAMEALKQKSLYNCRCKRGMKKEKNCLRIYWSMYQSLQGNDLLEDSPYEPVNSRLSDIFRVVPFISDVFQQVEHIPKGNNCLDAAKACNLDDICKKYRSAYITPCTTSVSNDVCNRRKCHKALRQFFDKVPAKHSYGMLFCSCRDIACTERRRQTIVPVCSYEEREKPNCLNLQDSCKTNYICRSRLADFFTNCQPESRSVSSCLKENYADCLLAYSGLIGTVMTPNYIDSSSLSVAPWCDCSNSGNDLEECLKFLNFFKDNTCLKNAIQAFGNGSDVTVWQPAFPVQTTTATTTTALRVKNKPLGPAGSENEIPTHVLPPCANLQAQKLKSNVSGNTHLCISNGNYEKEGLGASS
The test can be described thus: ELISA, plate-bound human GFRα1-Fc; lower end of the 95% confidence range, n = 14. How it is done: (§1) Each well of a 96-well plate (Greiner 655081 Immunobind ELISA plates) is coated with 70 μl of human GFRα1 (recombinant human GFRα1-Fc chimera, carrier-free) at 1 μg/ml in carbonate buffer, pH 9.6. If an irrelevant receptor is coated, it is an irrelevant Fc chimera and is coated at the same concentration as GFRα1. The plates are sealed and incubated at 4° C. overnight. The wells are aspirated and washed twice with washing buffer (20 mM Tris (hydroxymethyl) aminomethane, pH 7.4, 0.15 M NaCl, 0.1% Tween-20), using an automatic plate washer. The plates are blocked with 200 μl blocking buffer per well (3% Carnation Instant milk in the above washing buffer) for at least 1 hour at room temperature. Plates are washed twice with washing buffer. […]
(§2) A 50 μl aliquot of horseradish peroxidase-conjugated streptavidin (Jackson ImmunoResearch, catalog #016-030-084), diluted 1:1000 in blocking buffer, is added to each well and incubated for 20-30 minutes at room temperature. […] The absorbance of the wells is read at 490 nm on a Molecular Devices SpectraMax250 plate reader. The average absorbance for the triplicate wells for each condition are determined, and the resulting values are processed for EC₅₀ calculation with Graph Pad Prism software to provide a 95% confidence range.
Background: An ELISA detects its analyte on a solid surface through an enzyme-linked reagent.

For test [3], the target named is T2, Recombinant Human GFRα-1/GDNF Rα-1 Fc …. The test can be described thus: ELISA, plate-bound human GFRα1-Fc; upper end of the 95% confidence range, n = 14. The method, then: as §1, §2
The target is the same in test [4]. The test can be described thus: ELISA, plate-bound human GFRα1-Fc; upper end of the 95% confidence range, n = 4. How it is done:
as §1, §2

The target is the same in test [5]. The experiment in a line: ELISA, plate-bound human GFRα1-Fc; lower end of the 95% confidence range, n = 4. How it is done: as §1, §2

Residue numbers refer to the chain shown, from its start. Names may count otherwise.

B1: CHO-Δ31-GDNF (SEQ ID NO: 8) (ligand)
chain: RGQRGKNRGCVLTAIHLNVTDLGLGYETKEELIFRYCSGSCDAAETTYDKILKNLSRNRRLVSDKVGQACCRPIAFDDDLSFLDDNLVYHILRKHSAKRCGCI
modifications: N-glycosylated at N49 (numbering of mature GDNF)
notes: Expressed in CHO cells; also called CHO-Δ31-GDNFv; WT CHO Δ31-GDNFv
Turning to B1, in test [1], the Kd (in general, the free concentration of one partner at which half of the binding sites on the other are occupied at equilibrium, for simple one-to-one binding) is 0.044 nM; the off-rate constant (koff) (as a rule, a measure of how fast the partners let go of each other) came out at 0.00024 s⁻¹; the kon (usually the second-order rate constant of association) was found to be 5.6e+06 M⁻¹ s⁻¹. Further, the EC50 (as a rule, the concentration at which the effect is half-maximal) in test [2] lay in the range of 0.3 to 0.6 nM. In addition, the EC50 in test [3] was 0.3 to 0.6 nM.

B2: CHO-Δ31-N38Q-D95E-GDNF (SEQ ID NO: 9) (ligand)
chain: B1 chain with N7Q, D64E
modifications: N-glycosylated at N49 (numbering of mature GDNF)
notes: Expressed in CHO cells; also called CHO-Δ31-N38Q-D95E-GDNFv; GDNF variant 2
On to B2, for which, in test [1], the Kd amounted to 0.02 nM, the koff was 0.00019 s⁻¹ and the kon was determined as 9.4e+06 M⁻¹ s⁻¹. For the same molecule, in test [4], the EC50 was in the range of 0.3 to 1.9 nM. In test [5], the EC50 lay in the range of 0.3 to 1.9 nM.
